Source: patent US20170114104A1 (KOREA ADVANCED INSTITUTE OF SCIENCE AND TECHNOLOGY, published 2017)

T1: Biotinylated protein G (biotin-protein G) (site-specifically biotinylated in the N-terminal biotinylation peptide (AP, SEQ ID NO: 4) by BirA; labelled with atto532)
T1 construct: About 12 kDa protein G with the N-terminal AP peptide; also called biotin-protein G-atto532
T1 chain: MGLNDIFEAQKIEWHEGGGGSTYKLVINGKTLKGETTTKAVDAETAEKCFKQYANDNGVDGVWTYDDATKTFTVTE

B1: Monomeric rhizavidin with one mutation (1M: S69R) (designed binder)
chain: FDASNFKDFSSIASASSSWQNQSGSTMIIQVDSFGNVSGQYVNRAQGTGCQNSPYPLTGRVNGTFIAFRVGWNNSTENCNSATGWTGYAQVNGNNTEIVTSWNLAYEGGSGPAIEQGQDTFQYVPTTE
B2: Monodin (MA) (designed binder)
chain: FDASNFKDFSSIASASSSWQNQHGSTMIIQVDSFGNVSGQYVNRAEGTGCQNSPYPLTGRVNGTFIDFSVKWNNSTENCNSNTQWTGYAQVNGNNTEIVTRWNLKYEGGSGPAIWQGQDTFQYVPTTE
notes: Expressed from pET21a and purified on Ni-NTA (His6 tag); also called mRA E115W/S23H/Q46E
B3: Rhizavidin (RA) (other)
chain: FDASNFKDFSSIASASSSWQNQSGSTMIIQVDSFGNVSGQYVNRAQGTGCQNSPYPLTGRVNGTFIAFSVGWNNSTENCNSATGWTGYAQVNGNNTEIVTSWNLAYEGGSGPAIEQGQDTFQYVPTTE
notes: Homodimer; Purified on Ni-NTA; also called dimeric rhizavidin; wild type rhizavidin

Assays:
[1] = molecular target: T2, Biotinylated green fluorescent protein (biotin-GFP) (site-specifically biotinylated in the N-terminal biotinylation peptide (AP, SEQ ID NO: 4) by biotin ligase BirA); test: 15 % native-PAGE gel mobility shift, fluorescence of biotin-GFP [a]
T2 construct: Negatively charged GFP with the N-terminal AP biotinylation peptide

[2] = molecular target: T2, Biotinylated green fluorescent protein …; test: native-PAGE off-rate under excess biotin, 45 °C; reference streptavidin
Text: (§1) Data as ln(fraction bound) versus time and fitting the data to a straight line by linear regression. Dissociation rates were deduced from the slope of the line and the following equation:

[3] = molecular target: T1, Biotinylated protein G (biotin-protein …); test: native-PAGE off-rate under excess biotin, 37 °C
Text: as §1

[4] = molecular target: T2, Biotinylated green fluorescent protein …; test: native-PAGE off-rate under excess biotin, 37 °C
Text: as §1

[5] = molecular target: T2, Biotinylated green fluorescent protein …; test: native-PAGE off-rate under excess biotin, 37 °C; remark: listed apart in the source
Text: as §1

[6] = molecular target: T2, Biotinylated green fluorescent protein …; test: native-PAGE off-rate under excess biotin, 45 °C
Text: as §1

Row | Binder | binding result [1] | fold faster off-rate than tetrameric streptavidin [2] [fold] | koff [3] [s⁻¹] | koff [4] [s⁻¹] | dissociation half-life [5] [h] | koff [6] [s⁻¹]
1 | B1 | binds | – | – | – | – | –
2 | B2 | – | 3.4 | 4.6e-05 | 2.3e-05 | 8.3 | 6.4e-05
3 | B3 | – | – | 3.2e-05 | 5e-05 | 3.8 | 6e-05
